Laboratory results reported in article PMC9308819 (Nature Communications, 2022).

T1: Rep15, full length (natural N101D variant) (human, UniProt Q6BDI9 1-236, N101D)
T1 construct: also called full-length Rep15; Rab15 effector protein
T1 sequence (looked up): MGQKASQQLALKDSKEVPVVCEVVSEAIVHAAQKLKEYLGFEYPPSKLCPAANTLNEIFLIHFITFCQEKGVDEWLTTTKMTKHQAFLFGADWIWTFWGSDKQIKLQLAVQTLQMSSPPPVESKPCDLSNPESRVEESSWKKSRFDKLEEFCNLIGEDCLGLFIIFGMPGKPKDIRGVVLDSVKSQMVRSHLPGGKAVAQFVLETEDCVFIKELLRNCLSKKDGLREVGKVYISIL

T2: Rep15 H84A (human, UniProt Q6BDI9 1-236, N101D | H84A)
T2 construct: Limits probably as full-length wild type; source: E. coli BL21 Codon-Plus(DE3)-RIL, purified
T2 sequence: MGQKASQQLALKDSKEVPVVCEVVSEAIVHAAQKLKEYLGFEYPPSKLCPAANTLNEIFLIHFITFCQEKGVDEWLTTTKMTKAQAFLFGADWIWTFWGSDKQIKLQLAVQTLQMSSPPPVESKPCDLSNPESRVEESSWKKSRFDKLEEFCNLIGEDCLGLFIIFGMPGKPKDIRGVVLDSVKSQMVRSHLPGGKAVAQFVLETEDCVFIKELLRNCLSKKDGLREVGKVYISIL

T3: Rep15 L88A (human, UniProt Q6BDI9 1-236, N101D | L88A)
T3 construct: Limits probably as full-length wild type; source: E. coli BL21 Codon-Plus(DE3)-RIL, purified
T3 sequence: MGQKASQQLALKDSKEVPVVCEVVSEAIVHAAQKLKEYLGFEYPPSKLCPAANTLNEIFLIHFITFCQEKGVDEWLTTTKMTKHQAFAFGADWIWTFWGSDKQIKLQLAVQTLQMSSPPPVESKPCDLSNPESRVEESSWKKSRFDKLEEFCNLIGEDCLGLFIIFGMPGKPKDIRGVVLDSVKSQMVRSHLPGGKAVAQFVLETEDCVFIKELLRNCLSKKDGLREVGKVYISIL

T4: Rep15 W140A (human, UniProt Q6BDI9 1-236, N101D | W140A)
T4 construct: source: E. coli BL21 Codon-Plus(DE3)-RIL, purified
T4 sequence: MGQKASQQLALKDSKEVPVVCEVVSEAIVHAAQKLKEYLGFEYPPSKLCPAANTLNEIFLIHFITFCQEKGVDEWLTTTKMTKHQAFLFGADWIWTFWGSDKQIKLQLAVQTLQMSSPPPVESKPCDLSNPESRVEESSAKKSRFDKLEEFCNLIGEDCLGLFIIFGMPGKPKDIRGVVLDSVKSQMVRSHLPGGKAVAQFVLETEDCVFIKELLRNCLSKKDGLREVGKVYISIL

T5: Rep15 Q85A (human, UniProt Q6BDI9 1-236, N101D | Q85A)
T5 construct: Limits probably as full-length wild type; source: E. coli BL21 Codon-Plus(DE3)-RIL, purified
T5 sequence: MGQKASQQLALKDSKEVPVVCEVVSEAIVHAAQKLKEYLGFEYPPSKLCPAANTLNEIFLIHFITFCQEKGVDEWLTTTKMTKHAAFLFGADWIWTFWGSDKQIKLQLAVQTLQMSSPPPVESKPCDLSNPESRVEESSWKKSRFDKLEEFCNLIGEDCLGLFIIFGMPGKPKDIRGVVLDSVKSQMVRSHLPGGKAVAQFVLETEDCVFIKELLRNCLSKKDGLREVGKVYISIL

T6: Rep15 D158A (human, UniProt Q6BDI9 1-236, N101D | D158A)
T6 construct: Limits probably as full-length wild type; source: E. coli BL21 Codon-Plus(DE3)-RIL, purified
T6 sequence: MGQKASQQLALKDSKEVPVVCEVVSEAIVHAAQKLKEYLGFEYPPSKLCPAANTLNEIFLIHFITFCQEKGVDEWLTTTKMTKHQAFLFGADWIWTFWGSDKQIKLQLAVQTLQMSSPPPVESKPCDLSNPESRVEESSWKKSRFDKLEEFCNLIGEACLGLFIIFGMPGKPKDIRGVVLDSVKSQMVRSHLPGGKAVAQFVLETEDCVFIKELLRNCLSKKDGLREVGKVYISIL

T7: Rep15 V135A (human, UniProt Q6BDI9 1-236, N101D | V135A)
T7 construct: source: E. coli BL21 Codon-Plus(DE3)-RIL, purified
T7 sequence: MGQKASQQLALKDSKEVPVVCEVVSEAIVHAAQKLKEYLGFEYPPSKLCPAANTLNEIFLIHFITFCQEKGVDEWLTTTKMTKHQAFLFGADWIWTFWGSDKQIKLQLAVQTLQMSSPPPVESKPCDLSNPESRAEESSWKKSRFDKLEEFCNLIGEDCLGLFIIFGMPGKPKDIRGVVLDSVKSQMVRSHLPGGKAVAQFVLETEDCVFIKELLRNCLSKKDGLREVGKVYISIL

T8: Rep15 L88A (human, UniProt Q6BDI9 1-236, N101D | L88A)
T8 sequence: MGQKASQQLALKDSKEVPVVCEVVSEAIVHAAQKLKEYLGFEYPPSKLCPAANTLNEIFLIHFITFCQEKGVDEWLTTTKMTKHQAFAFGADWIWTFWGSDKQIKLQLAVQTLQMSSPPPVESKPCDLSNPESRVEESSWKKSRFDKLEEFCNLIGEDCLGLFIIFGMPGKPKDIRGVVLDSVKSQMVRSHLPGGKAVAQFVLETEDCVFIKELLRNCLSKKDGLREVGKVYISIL

T9: Rep15 Q85A (human, UniProt Q6BDI9 1-236, N101D | Q85A)
T9 sequence: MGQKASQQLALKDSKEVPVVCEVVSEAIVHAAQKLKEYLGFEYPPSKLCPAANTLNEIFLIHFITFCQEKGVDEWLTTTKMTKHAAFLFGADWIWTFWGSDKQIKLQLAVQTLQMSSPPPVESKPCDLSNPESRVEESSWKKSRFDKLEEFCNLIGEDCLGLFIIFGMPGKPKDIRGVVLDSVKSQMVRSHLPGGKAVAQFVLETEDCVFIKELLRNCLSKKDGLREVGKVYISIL

T10: Rep15 W140A (human, UniProt Q6BDI9 1-236, N101D | W140A)
T10 sequence: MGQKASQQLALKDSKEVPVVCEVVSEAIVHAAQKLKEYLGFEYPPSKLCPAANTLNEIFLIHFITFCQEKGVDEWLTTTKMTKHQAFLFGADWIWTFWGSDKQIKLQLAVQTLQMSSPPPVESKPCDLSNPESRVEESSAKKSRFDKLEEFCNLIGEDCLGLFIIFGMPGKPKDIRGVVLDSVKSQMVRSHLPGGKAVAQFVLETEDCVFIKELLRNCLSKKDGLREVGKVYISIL

T11: Rep15 D158A (human, UniProt Q6BDI9 1-236, N101D | D158A)
T11 sequence: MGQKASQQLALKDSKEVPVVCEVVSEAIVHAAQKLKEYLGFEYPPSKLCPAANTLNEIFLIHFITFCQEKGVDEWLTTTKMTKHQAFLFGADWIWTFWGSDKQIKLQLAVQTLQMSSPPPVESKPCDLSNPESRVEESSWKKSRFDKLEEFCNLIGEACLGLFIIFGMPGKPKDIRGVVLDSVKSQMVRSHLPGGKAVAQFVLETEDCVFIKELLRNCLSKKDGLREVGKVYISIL

T12: Rab3D (Homo sapiens (Human), UniProt O95716)
T12 chain: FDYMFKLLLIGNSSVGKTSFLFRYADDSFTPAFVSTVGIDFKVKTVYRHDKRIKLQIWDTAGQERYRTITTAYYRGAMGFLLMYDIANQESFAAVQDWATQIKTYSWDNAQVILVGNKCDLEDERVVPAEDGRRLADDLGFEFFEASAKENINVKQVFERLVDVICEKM

T13: Rab3B (Homo sapiens (Human), UniProt P20337)
T13 chain: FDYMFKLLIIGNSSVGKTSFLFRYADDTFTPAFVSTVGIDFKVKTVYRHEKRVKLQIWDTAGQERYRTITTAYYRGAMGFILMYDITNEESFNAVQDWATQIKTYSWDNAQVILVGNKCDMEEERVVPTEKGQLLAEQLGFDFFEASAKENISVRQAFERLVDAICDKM

T14: Rab27A (Homo sapiens (Human), UniProt P51159)
T14 chain: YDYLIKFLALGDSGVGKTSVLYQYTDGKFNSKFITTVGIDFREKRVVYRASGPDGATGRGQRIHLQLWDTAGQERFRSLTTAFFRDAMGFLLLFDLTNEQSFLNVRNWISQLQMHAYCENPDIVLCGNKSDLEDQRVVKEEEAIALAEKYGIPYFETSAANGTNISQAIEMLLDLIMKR

T15: Rab3A (Homo sapiens (Human), UniProt P20336)
T15 chain: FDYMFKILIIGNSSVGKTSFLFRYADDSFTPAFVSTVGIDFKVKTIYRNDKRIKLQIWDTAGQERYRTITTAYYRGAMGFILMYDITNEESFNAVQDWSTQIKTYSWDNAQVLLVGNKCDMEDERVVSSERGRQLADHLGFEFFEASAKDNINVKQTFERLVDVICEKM


Columns and labels:
[1] = target: T1, Rep15, full length (natural N101D …); assay: stopped-flow fluorescence intensity; association; 0.5 µM mant-GppNHp Rab3A mixed with increasing Rep15 (2–14 µM); 25 °C; 20 mM Hepes 8.0, 50 mM NaCl, 1 mM MgCl2, 2 mM DTE; koff from the intercept, KD as koff/kon; settings: both partners purified
Rep15 H84A = target: T2, Rep15 H84A; assay: ITC; 500/600 µM GppNHp/GTP Rab titrated into 50/60 µM Rep15; 20 mM Hepes 8.0, 50 mM NaCl, 1 mM MgCl2, 1 mM TCEP; one-site-binding model; settings: both partners purified
Rep15 L88A [2] = target: T3, Rep15 L88A; assay: as above; settings: both partners purified
Rep15 W140A [3] = target: T4, Rep15 W140A; assay: as above; settings: both partners purified
Rep15 Q85A [4] = target: T5, Rep15 Q85A; assay: as above; settings: both partners purified
Rep15 D158A [5] = target: T6, Rep15 D158A; assay: as above; settings: both partners purified
Rep15 V135A = target: T7, Rep15 V135A; assay: as above; settings: both partners purified
Rep15 L88A [6] = target: T8, Rep15 L88A; assay: ITC
Rep15 Q85A [7] = target: T9, Rep15 Q85A; assay: ITC
Rep15 W140A [8] = target: T10, Rep15 W140A; assay: ITC
Rep15 D158A [9] = target: T11, Rep15 D158A; assay: ITC
Rab3D = target: T12, Rab3D; assay: ITC
Rab3B = target: T13, Rab3B; assay: ITC
Rab27A = target: T14, Rab27A; assay: ITC
Rab3A = target: T15, Rab3A; assay: ITC

Binder	Kd [1] [µM]	koff [1] [s⁻¹]	kon [1] [M⁻¹ s⁻¹]	binding result (Rep15 H84A)	fold reduction in affinity against wild-type Rep15 (Rep15 L88A [2]) [fold]	binding result (Rep15 W140A [3])	fold reduction in affinity against wild-type Rep15 (Rep15 Q85A [4]) [fold]	fold reduction in affinity against wild-type Rep15 (Rep15 D158A [5]) [fold]	binding result (Rep15 V135A)	Kd (Rep15 L88A [6]) [µM]	Kd (Rep15 Q85A [7]) [µM]	Kd (Rep15 W140A [8]) [µM]	Kd (Rep15 D158A [9]) [µM]	Kd (Rab3D) [µM]	Kd (Rab3B) [µM]	Kd (Rab27A) [µM]	Kd (Rab3A) [µM]
Rab3A, purified, nucleotide-loaded (natural protein, human, UniProt P20336 1-220, looked up, Rab3A, human; Loaded with GppNHp (aSEC, ITC) or mant-GppNHp (stopped flow); also called Rab3A_(GppNHp); Rab3A_(mantGppNHp); source: E. coli BL21 Codon-Plus (DE3)-RIL, purified (Ni Sepharose, TEV cleavage, gel filtration)) MASATDSRYGQKESSDQNFDYMFKILIIGNSSVGKTSFLFRYADDSFTPAFVSTVGIDFKVKTIYRNDKRIKLQIWDTAGQERYRTITTAYYRGAMGFILMYDITNEESFNAVQDWSTQIKTYSWDNAQVLLVGNKCDMEDERVVSSERGRQLADHLGFEFFEASAKDNINVKQTFERLVDVICEKMSESLDTADPAVTGAKQGPQLSDQQVPPHQDCAC	0.44 to 0.53	4.29	9.72e+06	binds	20	binds	> 30	12	binds	9.7	18.5	0.4	5.59	–	–	–	–
Rep15 (protein) VPVVCEVVSEAIVHAAQKLKEYLGFEYPPSKLCPAANTLNEIFLIHFITFCQEKGVDEWLTTTKMTKHQAFLFGADWIWTFWGSNKQIKLQLAVQTLQMSSPPPVESKPCDLSNPESRVEESSWKKSRFDKLEEFCNLIGEDCLGLFIIFGMPGKPKDIRGVVLDSVKSQMVRSHLPGGKAVAQFVLETEDCVFIKELLRNCLSKKDGLREVGKVYISIL	–	–	–	–	–	–	–	–	–	–	–	–	–	0.79	2.16	86.2	0.48
